Data: patent US20200397816A1, “METHODS TO TREAT INFLAMMATORY AND SMOOTH MUSCLE CELL PROLIFERATION DISORDERS” (THE TRUSTEES OF INDIANA UNIVERSITY, priority 2019, published 2020)
“Also recorded” adds a separate entry of the source.

How the values were obtained:
[1] = tested on: EGR1; assay: EGR1 protein western blot (whole cell lysates, nuclear fractions) in RAW 264.7 macrophages; format: cell-based, mouse; conditions: macrophages
Method: (§1) RAW 264.7 (ATCC) mouse macrophages and Human Embryonic Kidney (HEK) 293T cells were cultured in DMEM media with 10% fetal bovine serum […] and glutamine HEPES buffer and beta-mercaptoethanol were added to the growth medium used for RAW 264.7 macrophages. Primary human pulmonary artery smooth muscle cells (hPASMC) purchased from Lonza (Walkersville, Md.) were cultured in complete growth medium containing smooth muscle growth media-2 (SmGM-2) with 10% FBS and growth factors provided as a kit by the supplier (Lonza, (Walkersville, Md.). THP-1 human monocyte cells were cultured in RPMI 1640 with 10% FBS and glutamine Cells were cultured in a humidified atmosphere with 5% CO2 at 370 C. For all studies passages 5-14 were used for RAW 264.7 and passages 5-10 were used for hPASMCs. For treatment studies, subconfluent cells plated in multi-well plates were serum starved and if required, pretreated for with inhibitors before stimulating with 2 μg/mL recombinant EMAP II.
(§2) After appropriate treatments, protein lysates were prepared by using RIPA buffer supplemented with phosphatase and protease inhibitors (Thermo Fischer Scientific). Alpha-tubulin was used as a loading control. For nuclear and cytoplasmic fractionation, NE-PER kit from Thermo Fischer Scientific was used. Western blots were performed according to standard methods and quantified using densitometry using Image Studio Lite software from LI-COR Biosciences.
RAW 264.7 (ATCC) mouse macrophages and HEK-293T (ATCC) cells were cultured in DMEM media with 10% (v/v) fetal bovine serum (FBS) and 2 mM glutamine HEPES buffer and beta-mercaptoethanol were added to the growth medium used for RAW 264.7 macrophages. Primary human pulmonary artery smooth muscle cells (hPASMC) purchased from Lonza (Walkersville, Md.) were cultured in complete growth medium containing smooth muscle growth media-2 (SmGM-2) with 10% FBS and growth factors provided as a kit by the supplier (Lonza, (Walkersville, Md.). THP-1 human monocyte cells were cultured in RPMI 1640 with 10% FBS and glutamine Cells were cultured in a humidified atmosphere with 5% CO2 at 37° C. For all studies passages 5-14 were used for RAW 264.7 and passages 5-10 were used for hPASMCs. For treatment studies, subconfluent cells plated in multi-well plates were serum starved and if required, pretreated with inhibitors before stimulation with 2 μg/mL recombinant EMAP II.
as §2, with “Fisher” for “Fischer”, “For nuclear and cytoplasmic fractionation, NE-PER kit from Thermo Fischer Scientific was used.” left out

[2] = tested on: SphK1; assay: SphK1 protein western blot in hPASMC; format: cell-based, human; conditions: SMCs; EMAP II 6 hours
Method: (§3) RAW 264.7 (ATCC) mouse macrophages and Human Embryonic Kidney (HEK) 293T cells were cultured in DMEM media with 10% fetal bovine serum […] and glutamine HEPES buffer and beta-mercaptoethanol were added to the growth medium used for RAW 264.7 macrophages. […]
(§4) After appropriate treatments, protein lysates were prepared by using RIPA buffer supplemented with phosphatase and protease inhibitors (Thermo Fischer Scientific). […] Western blots were performed according to standard methods and quantified using densitometry using Image Studio Lite software from LI-COR Biosciences. […]
as §4, with “Fisher” for “Fischer”

[3] = tested on: SphK1; assay: SphK1 protein western blot in RAW 264.7 macrophages; format: cell-based, mouse
Method: as §3, §4
(§5) After appropriate treatments, protein lysates were prepared by using RIPA buffer supplemented with phosphatase and protease inhibitors (Thermo Fisher Scientific). […] Western blots were performed according to standard methods and quantified using densitometry using Image Studio Lite software from LI-COR Biosciences.

[4] = tested on: pERK1/2; assay: pERK1/2 western blot time course in hPASMC; format: cell-based, human; conditions: SMCs
Method: as §1, §2
(§6) RAW 264.7 (ATCC) mouse macrophages and HEK-293T (ATCC) cells were cultured in DMEM media with 10% (v/v) fetal bovine serum (FBS) and 2 mM glutamine HEPES buffer and beta-mercaptoethanol were added to the growth medium used for RAW 264.7 macrophages. […]
as §5

[5] = tested on: pSTAT3; assay: pSTAT3 levels in SMCs (data not shown); format: cell-based, human
[6] = tested on: S1P; assay: S1P, sphingosine and ceramides by HPLC/MS/MS in hPASMC; format: cell-based, human
Method: as §1
Collected cells were rinsed with PBS, pelleted and frozen at minus 80° Celsius. Sphingolipids extraction and analysis is carried out at the Medical University of South Carolina (MUSC) core facility using eight-point calibration curves generated for each target analyte by High Performance Liquid Chromatography-Tandem Mass Spectrometry (HPLC/MS/MS) system operating in positive multiple reaction-monitoring (MRM) mode engaging a gradient elution. Sphingolipids are normalized to inorganic phosphate levels determined from the Bligh & Dyer lipid extraction method. Biological samples were from different passage numbers and on different days.
as §6
Collected cells were rinsed with PBS, pelleted. […] Sphingolipids were normalized to inorganic phosphate levels in PASMC which was determined from the Bligh & Dyer lipid extraction method. […]

[7] = tested on: S1P; assay: ELISA for S1P quantification in hPASMC; format: cell-based, human; conditions: SMCs; peaks at 1 hour and 6 hour; normalized against protein
Method: Equal number of hPASMC cells (1,000,000) were plated and serum starved for overnight. Cells were stimulated for in a series of time points and collected the cells. Cells were pelleted out and washed with PBS. After the lysis protein concentration was measured. S1P levels were measured using S1P ELISA kit (MyBioSource, MBS069092) following manufacturer's instructions. S1P levels were normalized against protein levels.

[8] = tested on: S1P; assay: Lung tissue S1P by HPLC/MS/MS in neonatal mice; format: in vivo, mouse; conditions: neonatal C57BL/6 mice; recombinant EMAP II subQ days of life 3-15; postnatal day 15 lungs
Method: Animal experimental procedure was performed in accordance with the guidelines issued by the University of Notre Dame/Indiana University Institutional Animal and Use Committee. Lung tissues were harvested from postnatal day 15 C57BL/6 mice (Jackson laboratories) that were injected with either EMAP II or PBS at Day 3. Total protein was extracted and quantified. 1 mg of total protein was subjected to S1P quantification by HPLC/MS/MS.
Collected cells were rinsed with PBS, pelleted. Cell pellets and 1 mg of protein tissue extracts were frozen at −80° C. Sphingolipids extraction and analysis was carried out at the Medical University of South Carolina (MUSC) core facility using eight-point calibration curves generated for each target analyte by High Performance Liquid Chromatography-Tandem Mass Spectrometry (HPLC/MS/MS) system operating in positive multiple reaction-monitoring (MRM) mode engaging a gradient elution. Sphingolipids were normalized to inorganic phosphate levels in PASMC which was determined from the Bligh & Dyer lipid extraction method. Biological samples were from different passages collected on different days.

[9] = tested on: TNF; assay: TNF in SMCs (data not shown); format: cell-based, human
[10] = tested on: Cyclin D1; assay: Cyclin D1 western blot in hPASMC; format: cell-based, human; conditions: SMCs; 48 hours of EMAP II stimulation
Method: as §3, §4, §5

B1: EMAP II: 6x-His tagged recombinant EMAP II, cleaved C-terminal peptide of AIMP1 (SEQ ID NO: 2), pro-inflammatory cytokine (protein)
chain: IAGSADSKPIDVSRLDLRIGCIITARKHPDADSLYVEEVDVGEIAPRTVVSGLVNHVPLEQMQNRMVILLCNLKPAKMRGVLSQAMVMCASSPEKIEILAPPNGSVPGDRITFDAFPGEPDKELNPKKKIWEQIQPDLHTNDECVATYKGVPFEVKGKGVCRAQTMSNSGIK
- EGR1 expression in whole cell lysates ([1]; 1 to 2 hours following EMAP II): significant upregulation
- upregulation of nuclear expression of EGR1 ([1]; EMAP II 2 μg/mL, at 2 hours): 9 fold
- SphK1 protein expression [2]: significant overexpression; also recorded: significantly increased
- protein expression of SphK1 compared to control ([3]; EMAP II treated macrophages): about 1.7 times
- SphK1 protein expression ([3]; macrophages, EMAP II 6 hours): significant overexpression; also recorded: significantly increased
- earliest time pERK1/2 reached significance [4]: 3 minutes
- time of pERK1/2 peak [4]: 3 minutes
- ERK1/2 phosphorylation (pERK1/2) ([4]; 24-hour time course): bi-modal ERK1/2 activation; also recorded: induced pERK1/2
- pSTAT3 levels / STAT3 activation [5]: does not impact; also recorded: no STAT3 activation
- extracellular S1P compared to control ([6]; SMCs growth media, 1 hour of EMAP II): elevation; also recorded: elevated
- cellular sphingosine and ceramide levels ([6]; SMCs, EMAP II 0-24 hours): depreciation throughout the time; also recorded: decreasing levels over time
- cellular S1P levels (HPLC/MS/MS) ([6]; SMCs, EMAP II 0-24 hours, normalized against inorganic phosphates): bi-modal elevation
- intracellular S1P levels (ELISA) [7]: significant bimodal pattern
- whole lung S1P levels compared to control [8]: significantly increased; also recorded: significant increase
- TNF induction [9]: absent
- cyclin D1 expression [10]: modulates cyclin D1; also recorded: marked increase
